Experimental data from the RNAGym collection of RNA variant scans (doi:10.1073/pnas.2313332121).

B1: TPR t1 (parent)
chain: GACCAAUCUGCCCUCAGAGCUCGAGAACAUCUUCGGAUGCAGAGGAGGCAGGCUUCGGUGGCGCGAUAGCGCCAACGUCCUCAACCUCCAAUGCAUCCCACCACAUGAUGAUGCCUGAAGAGCCUUGGUUUUUUG

Variants of: B1
Assay: polymerase ribozyme fitness, log enrichment relative to wild type (log ratio); higher = more active; in vitro selection for triplet polymerase activity
Outline: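 Each subunit of a heterodimeric triplet polymerase ribozyme was represented by a PCR-built, transcribed mutant library that underwent triplicate single-round in vitro selection with frozen incubation at −7 °C. Extended constructs were recovered by gel excision, streptavidin-bead capture and RT-PCR, and Illumina sequencing of input and output libraries kept genotypes with ≥10 input reads and ≥1 read per output. Fitness is the logarithm of genotype enrichment relative to wild-type enrichment, from inverse-variance-weighted replicate averages, with a logarithm base of 2.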

Variant	polymerase ribozyme fitness (log ratio)
U7A G45A G58A U59C	-2.17
U7A C8G G45A U112A	1.66
U7A C53U A74C	0.916
A6U G57U G61A U87C C99A C124A	-5.7
A6U U112A	0.759
U7A G44C	-0.264
A6U C79A G110A	-2.78
A6U C70A C124A	0.175
U7A U92A A103C	-5.64
A6U C89U	-0.0502
A6U C11G U55C	-0.352
A6U C11U G47A A118U	-1.52
U7C C11G A27U G35U G45A U59C A84G C101U A121U	-8.13
U7C A27G G69C	-2.37
U7A C13U C22G A103C U130C	-4.17
A6U G60U	-0.858
A6U C8G G60A U130C	-0.0856
U7A C56U	0.211
A6U U129A	-1.16
U7A G48U C94G U116C G120A	-2.95
A6U C13U C72A	0.0717

Variant	polymerase ribozyme fitness (log ratio)
U7A G39U G69U	0.59
U7A G39U G69A	-3.24
A6U G61C U78G U130C	-3.92
A6U C72A C85U A90G G107U U112A	-4.8
A6U G39U C53G A68G U96G	-7.34
A6U G63C	-0.899
A6U G63A	-0.932
U7A U9A C20U U38A G47U C56A G60U C72G C114A A121U C123U	-4.89
A6U C11U G71C	-0.83
U7A C114A	-1.29
U7A C114G	-2.07
A6U C49U G60A C94G G113A	-3.92
U7C A18C G42U G77U A84U	-2.98
U7A C13U C15U G44U G77U	-2.35
A6U G17C A50C U87A	-4.69
U7A U116G	-1.35
U7A U14A G44U	-2.04
A6U C12U G23C G63U G120U	-7.69
U7C A46C G60U	-0.333
A6U G93A	-0.555
A6U C76G C98U	-1.31

Variant	polymerase ribozyme fitness (log ratio)
A6U G51C A74U G113A C123G	-4.2
A6U G107U	-3.94
U7A G17U	-1.25
A6U C62A A111U G122A	-5.22
A6U C49A C62U C70G C104A U125A	-7.09
U7C C8U A46U C56G G128U	-3.61
A6U C13U G61C U112A	-1.1
A6U G52A	-2.05
A6U G52U	-1.52
U7A C86G	-0.205
A6U C13A G36C C123U	0.00441
A6U G44U U87A A91C C97U	-1.94
A6U G10A C15U A46C C53G G61U C79A C80U C115G A119G	-4.07
A6U C64U	-0.037
U7C A27U G36C G57A A74U	-4.85
U7A C11A	-0.042
U7A G10C C56U C62U C80A A84U G110A C124A U133A	-7.38
A6U U106C G107A C114U	-5.44
A6U U9C G47A G63U	-1.85
U7A C64U	-0.637
U7C A37G G57A C62U	-5.38

Variant	polymerase ribozyme fitness (log ratio)
U7A G36U G45U C86U	-3.34
A6U C70U U129C	-1.04
A6U G71C	-0.895
U7A A18G C20A G39A C70U U116C G120U C123U C124A	-6.7
A6U G48C C102U U131C	-1.55
A6U U9G C40G G60U C80U U126C U131A	-3.72
A6U C13G A74U C88U C97U G117C C124G U132A	-3.99
A6U G45A A50U G113C	-5.5
A6U G48U G93A G110U	-2.34
A6U C94G G120A	0.554
U7A G47C	-1.26
U7A G47A	-0.612
U7A C12G A27C G122A U130C	-2.81
A6U C62U	0.19
A6U C85G	-1.65
U7A U9G C70U C73U C79G A84G U96C	-4.92
A6U C40U G57C G61U A100C G113A	-3.51
U7A G120C	1.32
U7A G120A	1.77
A6U G45C C101U G110C	-5.31
U7A C12A A83C	-0.0554
